Consider three molecules from patent US20090137002A1 (published 2009).

For assay [1], the target named is T1, recombinant human EphB4-Fc fusion protein (human, UniProt P54760 16-539).
T1 construct: extracellular domain; also called hEphB4; hu EphB4-Fc
T1 sequence (looked up): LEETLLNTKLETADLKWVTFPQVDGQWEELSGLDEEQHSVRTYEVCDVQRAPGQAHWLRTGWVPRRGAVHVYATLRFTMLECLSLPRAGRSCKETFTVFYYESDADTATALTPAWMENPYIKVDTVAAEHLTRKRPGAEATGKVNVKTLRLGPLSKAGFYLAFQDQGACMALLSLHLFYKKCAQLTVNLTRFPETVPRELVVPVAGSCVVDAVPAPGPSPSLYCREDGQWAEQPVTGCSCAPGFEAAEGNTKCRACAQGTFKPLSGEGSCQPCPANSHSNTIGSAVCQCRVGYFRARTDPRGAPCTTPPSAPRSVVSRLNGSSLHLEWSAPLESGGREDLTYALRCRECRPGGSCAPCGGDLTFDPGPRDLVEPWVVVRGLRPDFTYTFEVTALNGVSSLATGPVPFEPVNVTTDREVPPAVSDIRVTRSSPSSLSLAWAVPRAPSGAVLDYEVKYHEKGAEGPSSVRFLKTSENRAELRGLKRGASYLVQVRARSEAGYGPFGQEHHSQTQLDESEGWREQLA
Description: SET (MSD), solution equilibrium titration. As for the experimental part:
Two independent measurements were performed on human and murine EphB4-Fc.

Assay [2] has as its target T2, myc-tagged human EphB4 on transfected CHO cells (human, UniProt P54760 16-987).
T2 construct: whole, on cells; also called CHO-EphB4; CHO-hEphB4; not shown: myc tag
T2 sequence (looked up): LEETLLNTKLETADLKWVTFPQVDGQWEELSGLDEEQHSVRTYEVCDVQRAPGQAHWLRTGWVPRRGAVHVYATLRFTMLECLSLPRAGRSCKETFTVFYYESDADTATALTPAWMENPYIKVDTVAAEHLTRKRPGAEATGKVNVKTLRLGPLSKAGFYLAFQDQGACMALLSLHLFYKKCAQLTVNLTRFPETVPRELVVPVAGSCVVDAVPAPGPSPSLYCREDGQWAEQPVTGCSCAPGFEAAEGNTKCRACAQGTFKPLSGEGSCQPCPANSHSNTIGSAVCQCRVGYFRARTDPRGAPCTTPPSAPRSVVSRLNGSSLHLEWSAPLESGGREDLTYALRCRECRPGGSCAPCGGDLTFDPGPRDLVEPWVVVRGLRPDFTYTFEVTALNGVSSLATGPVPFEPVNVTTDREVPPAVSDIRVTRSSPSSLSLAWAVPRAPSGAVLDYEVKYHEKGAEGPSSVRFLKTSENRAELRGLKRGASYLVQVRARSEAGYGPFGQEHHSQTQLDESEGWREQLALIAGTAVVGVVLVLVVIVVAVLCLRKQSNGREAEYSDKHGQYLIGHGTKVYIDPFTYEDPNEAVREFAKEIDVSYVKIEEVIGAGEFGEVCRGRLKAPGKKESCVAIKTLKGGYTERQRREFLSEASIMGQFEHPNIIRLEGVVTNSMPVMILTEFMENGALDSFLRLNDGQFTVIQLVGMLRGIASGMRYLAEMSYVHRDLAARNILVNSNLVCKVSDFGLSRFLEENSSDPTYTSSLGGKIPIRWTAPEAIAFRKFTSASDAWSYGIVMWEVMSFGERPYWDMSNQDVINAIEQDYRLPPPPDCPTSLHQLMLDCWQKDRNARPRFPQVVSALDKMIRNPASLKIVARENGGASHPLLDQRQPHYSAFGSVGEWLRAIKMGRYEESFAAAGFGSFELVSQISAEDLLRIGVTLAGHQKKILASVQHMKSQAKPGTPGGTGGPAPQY
Description: FACS competition on CHO-hEphB4 cells, competitor biotinylated mEphrinB2 250 ng/mL. As for the experimental part: CHO-hEphB4 cells were trypsinized, washed and resuspended in FACS buffer (PBS/1% BSA) containing anti-EphB4 antibody at different concentrations and incubated at 4° C. for 30 min. Cells were washed in FACS buffer and resuspended in FACS buffer containing biotinylated mEphrinB2 at 250 ng/mL and incubated at 4° C. for 1 hr. cells were washed in FACS buffer and resuspended in FACS buffer containing Streptavidin-PE and incubated at 4° C. for 30 min. After a final wash step, cell staining was analyzed in a Becton Dickinson FACS.

Assay [3] concerns the target T3, recombinant murine EphB4-Fc fusion protein (mouse, UniProt P54761 16-539).
T3 construct: extracellular domain; also called mEphB4; mu EphB4; not shown: Fc part, not described
T3 sequence (looked up): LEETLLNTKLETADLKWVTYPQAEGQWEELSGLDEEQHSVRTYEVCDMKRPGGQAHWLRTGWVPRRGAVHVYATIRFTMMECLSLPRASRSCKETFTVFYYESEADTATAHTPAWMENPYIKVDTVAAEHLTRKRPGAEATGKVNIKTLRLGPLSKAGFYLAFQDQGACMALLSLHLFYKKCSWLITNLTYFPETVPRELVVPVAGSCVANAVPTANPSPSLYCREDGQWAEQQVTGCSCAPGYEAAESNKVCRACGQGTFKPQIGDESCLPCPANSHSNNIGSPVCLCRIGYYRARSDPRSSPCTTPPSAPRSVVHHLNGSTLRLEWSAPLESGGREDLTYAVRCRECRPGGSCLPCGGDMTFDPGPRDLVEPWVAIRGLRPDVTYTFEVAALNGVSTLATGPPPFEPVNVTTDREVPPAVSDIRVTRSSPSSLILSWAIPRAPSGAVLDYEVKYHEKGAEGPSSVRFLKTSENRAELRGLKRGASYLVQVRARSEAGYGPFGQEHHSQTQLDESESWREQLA
Description: competition ELISA, Fab against EphrinB2-Fc on immobilized murine EphB4. On the procedure:
(§1) IC₅₀ values were determined using recombinant antigen (murine and human EphB4) in an ELISA and on transfected cells in a FACS analysis (human EphB4 receptor).
(§2) Binding of (a fixed concentration of) the ligand EphrinB2-Fc to immobilized EphB4 receptor on an ELISA plate or on transfected cells is titrated with anti-EphB4 Fab. The IC₅₀ is determined as the amount of Fab at which the binding of EphrinB2 is inhibited by 50%.
In general terms: An ELISA detects its analyte on a solid surface through an enzyme-linked reagent.

Assay [4] addresses T1, recombinant human EphB4-Fc fusion …. Description: competition ELISA, Fab against EphrinB2-Fc on immobilized human EphB4. On the procedure: as §1, §2
For assay [5], the target named is T2, myc-tagged human EphB4 on transfected …. As to the kind of experiment: FACS, Fab against EphrinB2-Fc on hEphB4-transfected cells. On the procedure: as §1, §2
On the technique in general: Flow cytometry measures light scatter and fluorescence of single cells or particles in a stream.

B1: MOR03640 Fab (Fab, V domains shown)
VH: QVQLVESGGGLVQPGGSLRLSCAASGFTFNNSWMSWVRQAPGKGLEWVSNITSSSSMTHYADSVKGRFTISRDNSKNTLYLQMNSLRAEDTAVYYCARKGMSFYNNKYAKSMFDLWGQGTLVTVSS
VL: DIELTQPPSVSVAPGQTARISCSGDNLGKKYVHWYQQKPGQAPVLVIYYDSKRPSGIPERFSGSNSGNTATLTISGTQAEDEADYYCSAWTTTMMHIVFGGGTKLTVLG
notes: Monomeric HuCAL Fab, purified, MH-tagged
The Kd is the constant that tells how readily two partners part at equilibrium. The term IC50 denotes the concentration at which inhibition is half-maximal. With B1, the Kd in assay [1] came out at 1.05 nM. Further, in assay [2], the “IC50 (read off the curve)” value is roughly 0.4 µg/mL. Besides, the IC50 was 117 µg/mL in assay [3], 33 µg/mL in assay [4] and 2.1 µg/mL in assay [5].

B2: MOR03641 Fab (Fab, V domains shown)
VH: QVQLVQSGAEVKKPGSSVKVSCKASGGTFSTYAISWVRQAPGQGLEWMGRIIPIFGTANYAQKFQGRVTITADESTSTAYMELSSLRSEDTAVYYCARSSYTILTTYYNYNAMDNWGQGTLVTVSS
VL: DIQMTQSPSSLSASVGDRVTITCRASQNINNFLNWYQQKPGKAPKLLIYGSSILQSGVPSRFSGSGSGTDFTLTISSLQPEDFAVYYCHQVSDTSDTFGQGTKVEIKR
notes: Monomeric HuCAL Fab (VH1A, kappa1), purified, MH-tagged; also called 3541 [sic]
Regarding B2, in assay [1], the Kd is greater than 5 nM. In assay [2], the “IC50 (read off the curve)” value was roughly 1 µg/mL. Besides, the results for the IC50 in assay [3], in assay [4] and in assay [5] were 24 µg/mL, 5 µg/mL and 4.4 µg/mL, respectively.

B3: MOR03639 Fab (Fab, V domains shown)
VH: QVQLVESGGGLVQPGGSLRLSCAASGFTFSNYYLHWVRQAPGKGLEWVSGISYSGSSTYYADSVKGRFTISRDNSKNTLYLQMNSLRAEDTAVYYCARFYQRRQIPHGYDVWGQGTLVTVSS
VL: DIELTQPPSVSVAPGQTARISCSGDNIGDYYVHWYQQKPGQAPVLVIYRDSNRPSGIPERFSGSNSGNTATLTISGTQAEDEADYYCGSYDMPFGGTVFGGGTKLTVLG
notes: Monomeric HuCAL Fab (VH3, lambda3), purified, MH-tagged
Consider B3, for which the “IC50 (read off the curve)” value in assay [2] is roughly 2 µg/mL. The half-maximal inhibitory concentration (IC50) was 22 µg/mL in assay [3], 65 µg/mL in assay [4] and 2.8 µg/mL in assay [5].
